Assay results from patent US20140094592A1.

Tests used:
[1] = molecular target: gonadotropin releasing hormone receptor; assay: competition with I125-d-Lys6-GnRH on pituitary membranes; competitor at 29.09 nM
[2] = molecular target: gonadotropin releasing hormone receptor; assay: competition with I125-d-Lys6-GnRH on pituitary membranes; competitor at 181.82 nM
[3] = molecular target: gonadotropin releasing hormone receptor; assay: competition with I125-d-Lys6-GnRH on pituitary membranes; competitor at 72.73 nM
[4] = molecular target: gonadotropin releasing hormone receptor; assay: competition with I125-d-Lys6-GnRH on pituitary membranes; competitor at 1136.36 nM
[5] = molecular target: gonadotropin releasing hormone receptor; assay: competition with I125-d-Lys6-GnRH on pituitary membranes; competitor at 454.55 nM
[6] = molecular target: gonadotropin releasing hormone receptor; assay: competition with I125-d-Lys6-GnRH on pituitary membranes; competitor at 176.47 nM
[7] = molecular target: gonadotropin releasing hormone receptor; assay: competition with I125-d-Lys6-GnRH on pituitary membranes; competitor at 70.59 nM
[8] = molecular target: gonadotropin releasing hormone receptor; assay: competition with I125-d-Lys6-GnRH on pituitary membranes; competitor at 1102.94 nM
[9] = molecular target: gonadotropin releasing hormone receptor; assay: competition with I125-d-Lys6-GnRH on pituitary membranes; competitor at 441.18 nM
[10] = molecular target: gonadotropin releasing hormone receptor; assay: competitive radio-immuno receptor binding assay, pituitary membranes, displacement of I125-d-Lys6-GnRH
[11] = molecular target: gonadotropin releasing hormone receptor; assay: competition with I125-d-Lys6-GnRH on pituitary membranes; competitor at 28.24 nM
[12] = molecular target: gonadotropin releasing hormone receptor; assay: competition with I125-d-Lys6-GnRH on pituitary membranes; competitor at 32 nM
[13] = molecular target: gonadotropin releasing hormone receptor; assay: competition with I125-d-Lys6-GnRH on pituitary membranes; competitor at 1250 nM
[14] = molecular target: gonadotropin releasing hormone receptor; assay: competition with I125-d-Lys6-GnRH on pituitary membranes; competitor at 200 nM
[15] = molecular target: gonadotropin releasing hormone receptor; assay: competition with I125-d-Lys6-GnRH on pituitary membranes; competitor at 80 nM
[16] = molecular target: gonadotropin releasing hormone receptor; assay: competition with I125-d-Lys6-GnRH on pituitary membranes; competitor at 500 nM

non-conjugated recombinant PAP (not bound to d-lys6-GnRH-GMBS) (from UniProt P10297 23-285)
read-out of the competitive receptor binding assay (unit not given) [1]: 91.5 | read-out of the competitive receptor binding assay (unit not given) [2]: 96.4 | read-out of the competitive receptor binding assay (unit not given) [3]: 111 | read-out of the competitive receptor binding assay (unit not given) [4]: 74.8 | read-out of the competitive receptor binding assay (unit not given) [5]: 98.7

d-lys6-GnRH-GMBS-rPAP (from UniProt P10297 23-285)
read-out of the competitive receptor binding assay (unit not given) [6]: 49.4 | read-out of the competitive receptor binding assay (unit not given) [7]: 78.2 | read-out of the competitive receptor binding assay (unit not given) [8]: 9.24 | read-out of the competitive receptor binding assay (unit not given) [9]: 34 | IC50 [10]: 70 to 200 nM | read-out of the competitive receptor binding assay (unit not given) [11]: 75

B1: d-lys6-GnRH-GMBS-plant-derived mature PAP (protein)
chain: VNTIIYNVGSTTISKYATFLNDLRNEAKDPSLKCYGIPMLPNTNTNPKYVLVELQGSNKKTITLMLRRNNLYVMGYSDPFETNKCRYHIFNDISGTERQDVETTLCPNANSRVSKNINFDSRYPTLESKAGVKSRSQVQLGIQILDSNIGKISGVMSFTEKTEAEFLLVAIQMVSEAARFKYIENQVKTNFNRAFNPNPKVLNLQETWGKISTAIHDAKNGVLPKPLELVDASGAKWIVLRVDEIKPDVALLNYVGGSCQTT
peptide: EHWSYKLRP
modifications: Hp-Glu at position 1 (blocked N-terminus); D-Lys at position 6, carrying the GMBS linker; C-terminal ethyl-amide (Et-NH2) replacing Gly 10; bound through the GMBS linker to d-lys6-GnRH; site of attachment not stated
read-out of the competitive receptor binding assay (unit not given) [12]: 65.5 | read-out of the competitive receptor binding assay (unit not given) [13]: 0 | read-out of the competitive receptor binding assay (unit not given) [14]: 10.1 | IC50 [10]: 70 to 200 nM | read-out of the competitive receptor binding assay (unit not given) [15]: 37.5 | read-out of the competitive receptor binding assay (unit not given) [16]: 3.38
